Test results from patent US20170174776A1.

Experiments:
[1] = target: fusion protein of the human transferrin receptor extracellular domain linked to human IgG1 Fc (human) (UniProt P02786); test: ELISA, coated human TfR ECD-Fc, pH 5.5
[2] = target: fusion protein of the human transferrin receptor extracellular domain linked to human IgG1 Fc (human) (UniProt P02786); test: ELISA, coated human TfR ECD-Fc, pH 7.4
[3] = target: fusion protein of the human transferrin receptor extracellular domain linked to human IgG1 Fc (human) (UniProt P02786); test: ELISA, coated human TfR ECD-Fc, pH 5.5 against pH 7.4

Sequence of fusion protein of the human transferrin receptor extracellular domain linked to human IgG1 Fc (human) (P02786 89-760): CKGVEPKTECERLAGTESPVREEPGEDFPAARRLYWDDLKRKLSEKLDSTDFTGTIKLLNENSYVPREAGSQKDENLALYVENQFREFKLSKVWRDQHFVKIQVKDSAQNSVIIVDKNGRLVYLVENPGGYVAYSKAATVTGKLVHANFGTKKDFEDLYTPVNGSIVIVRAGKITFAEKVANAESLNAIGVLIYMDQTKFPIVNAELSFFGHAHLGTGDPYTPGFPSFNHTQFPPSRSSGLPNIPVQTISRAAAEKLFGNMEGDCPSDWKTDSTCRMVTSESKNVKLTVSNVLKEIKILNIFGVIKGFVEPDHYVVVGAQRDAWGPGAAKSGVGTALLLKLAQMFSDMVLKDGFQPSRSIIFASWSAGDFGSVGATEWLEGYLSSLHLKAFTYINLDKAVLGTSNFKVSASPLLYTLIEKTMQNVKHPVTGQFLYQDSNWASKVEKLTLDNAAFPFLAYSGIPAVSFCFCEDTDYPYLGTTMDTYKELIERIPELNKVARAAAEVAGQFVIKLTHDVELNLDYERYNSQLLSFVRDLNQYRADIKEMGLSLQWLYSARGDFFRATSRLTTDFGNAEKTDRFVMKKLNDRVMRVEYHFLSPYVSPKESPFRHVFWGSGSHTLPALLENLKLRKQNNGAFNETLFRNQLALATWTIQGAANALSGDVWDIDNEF

| Substance | EC50 [1] [µg/mL] | EC50 [2] [µg/mL] | ratio EC50 pH 5.5/EC50 pH 7.4 [3] |
| --- | --- | --- | --- |
| mAb MEM-75 (antibody) | 0.59 |  |  |
| mAb MEM-189 (antibody) | > 1 | 0.0642 | > 15.6 |
| mAb OKT-9 (antibody) | 0.691 | 0.065 | 10.6 |
